This assay concerns the target CBM-Coh (carbohydrate-binding module and type-I cohesin from C. thermocellum CipA) (Clostridium thermocellum). Nature of the assay: ELISA, plates coated with CBM-Coh; wtDoc-Xyn in 10 mM EDTA against wtDoc-Xyn in 1 mM CaCl2.

In turn, “wtDoc-Xyn (wild-type C. thermocellum Cel48S dockerin fused to the N-terminus of G. stearothermophilus xylanase T-6, C-terminal His tag)” gave a ΔΔG (in EDTA relative to Ca2+) of 2.01 kcal/mol.

The record behind these values is patent US20110151538A1.
